# Laboratory results: US20210147526A1
# B1: VL3VHK20TFT Fab (Fab, V domains shown)
# VH: QVQLVQSGAEVKKPGASVKVSCKASGYTFTKYWINWVRQAPGQGLEWMGIIYPGSSTSNYNEKFKTRVTMTVDTSTSTAYMELSSLRSEDTAVYYCVKNDNWGQGTLVTVSS
# VL: DIQMTQSPSSLSASVGDRVTITCRASESVDNYGISFMNWFQQKPGKAPKLLIYAASDLGSGVPSRFSGSGSGTDFTLTISSLQPEDFATYYCHQSKEVPYTFGQGTKLEIK
# How the values were obtained:
# [1] = target: ITGA7 mutant P980A on HEK-293T cells (human) (UniProt P05556); experiment: high-throughput flow cytometry on HEK-293T cells with the ITGA7 alanine mutant, high stringency, normalized to wild type
# [2] = target: ITGA7 mutant S977A on HEK-293T cells (human) (UniProt P05556); experiment: as above
# ITGA7 mutant S977A on HEK-293T cells (human), sequence (chain, as listed by the source S977A S977A, chain 1 of 2): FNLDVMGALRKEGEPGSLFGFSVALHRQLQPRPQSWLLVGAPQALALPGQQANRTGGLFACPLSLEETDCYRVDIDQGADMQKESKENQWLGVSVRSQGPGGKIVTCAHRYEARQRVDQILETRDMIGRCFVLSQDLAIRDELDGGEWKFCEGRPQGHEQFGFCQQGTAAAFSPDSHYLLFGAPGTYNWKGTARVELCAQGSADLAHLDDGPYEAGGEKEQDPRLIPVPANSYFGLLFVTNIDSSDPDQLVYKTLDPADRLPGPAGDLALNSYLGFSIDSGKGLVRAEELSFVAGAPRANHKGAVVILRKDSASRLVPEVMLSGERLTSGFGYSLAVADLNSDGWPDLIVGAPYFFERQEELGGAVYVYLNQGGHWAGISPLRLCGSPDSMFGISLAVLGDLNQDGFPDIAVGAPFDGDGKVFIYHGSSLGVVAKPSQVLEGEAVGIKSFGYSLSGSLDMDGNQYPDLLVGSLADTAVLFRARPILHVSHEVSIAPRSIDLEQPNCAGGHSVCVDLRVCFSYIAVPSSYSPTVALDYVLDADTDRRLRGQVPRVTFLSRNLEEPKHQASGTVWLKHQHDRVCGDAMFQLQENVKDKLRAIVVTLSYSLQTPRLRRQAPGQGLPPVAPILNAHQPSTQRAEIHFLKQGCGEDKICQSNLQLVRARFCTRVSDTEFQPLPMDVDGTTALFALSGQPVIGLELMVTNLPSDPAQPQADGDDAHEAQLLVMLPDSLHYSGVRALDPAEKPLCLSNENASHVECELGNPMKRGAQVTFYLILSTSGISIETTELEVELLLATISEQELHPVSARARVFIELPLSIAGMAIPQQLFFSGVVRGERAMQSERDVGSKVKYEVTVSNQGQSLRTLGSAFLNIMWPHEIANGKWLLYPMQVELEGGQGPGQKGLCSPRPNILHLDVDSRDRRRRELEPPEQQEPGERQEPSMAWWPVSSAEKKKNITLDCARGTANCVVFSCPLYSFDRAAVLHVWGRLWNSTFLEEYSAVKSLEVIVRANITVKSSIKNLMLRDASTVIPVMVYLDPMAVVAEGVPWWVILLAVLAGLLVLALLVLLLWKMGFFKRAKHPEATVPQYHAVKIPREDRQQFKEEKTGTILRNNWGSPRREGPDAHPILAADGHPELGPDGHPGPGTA
# ITGA7 mutant S977A on HEK-293T cells (human), sequence (P05556 21-798, chain 2 of 2): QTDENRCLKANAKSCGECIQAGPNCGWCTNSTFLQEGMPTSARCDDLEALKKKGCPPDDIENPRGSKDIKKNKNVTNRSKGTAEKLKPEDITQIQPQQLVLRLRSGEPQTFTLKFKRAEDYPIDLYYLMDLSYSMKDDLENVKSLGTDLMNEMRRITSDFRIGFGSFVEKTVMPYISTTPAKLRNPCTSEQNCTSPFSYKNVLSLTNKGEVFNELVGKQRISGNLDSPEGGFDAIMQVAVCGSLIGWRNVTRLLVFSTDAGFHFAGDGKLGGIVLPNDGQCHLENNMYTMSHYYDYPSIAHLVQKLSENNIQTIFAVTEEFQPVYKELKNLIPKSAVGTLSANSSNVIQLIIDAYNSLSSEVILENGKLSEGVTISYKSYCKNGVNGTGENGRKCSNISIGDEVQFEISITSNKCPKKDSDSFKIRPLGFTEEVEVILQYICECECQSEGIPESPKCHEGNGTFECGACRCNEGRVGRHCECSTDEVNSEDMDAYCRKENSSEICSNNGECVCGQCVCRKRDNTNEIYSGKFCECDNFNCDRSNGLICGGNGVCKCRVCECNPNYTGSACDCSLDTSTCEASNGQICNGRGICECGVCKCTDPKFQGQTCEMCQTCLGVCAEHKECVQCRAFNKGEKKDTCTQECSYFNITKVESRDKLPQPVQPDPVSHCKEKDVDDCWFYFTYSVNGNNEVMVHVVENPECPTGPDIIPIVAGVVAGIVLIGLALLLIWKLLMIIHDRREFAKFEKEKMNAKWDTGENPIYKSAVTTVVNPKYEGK
# ITGA7 mutant P980A on HEK-293T cells (human), sequence (chain, as listed by the source P980A P980A, chain 1 of 2): as the sequence (chain, as listed by the source S977A S977A, chain 1 of 2) above, with A944S, P947A counted along it
# ITGA7 mutant P980A on HEK-293T cells (human), sequence (P05556 21-798, chain 2 of 2): as the sequence (P05556 21-798, chain 2 of 2) above
binder,measurement,setting,value
B1,Binding Reactivity (% WT),[1],1.1 % WT
same,Binding Reactivity (% WT),[2],8 % WT
